Source: patent US20220031840A1, “Method of Treatment” (HaemaLogix Pty Ltd, priority 2018, published 2022)

What was measured:
Assay type in all cases: in vivo, human
CXCL9 = assay: Biomarker analysis: serum CXCL9; details: adjusted for cytokine baseline differences
Experimental: Patient serum samples for biomarker analysis were collected approximately 30 minutes before infusion of kappamab and then at 6, 48, 192, and 1,080 hours after infusion for all patients. Samples were analysed in triplicate and serum levels of 48 human cytokines, chemokines, and growth factors were measured using the Bio-Plex Pro™ Human Cytokine 27-plex and 21-plex assays according to the manufacturer's recommendations (Bio-Rad, Carlsbad, Calif., USA; Cat No M10-0KCAF0Y, mg0-005KMII). Results were verified by repeating the 21-plex assay in triplicate and the samples were randomized across the assay plate. Pre-infusion samples were used as the baseline (t=0) for the analysis.
Multivariate analysis of the biomarker data was performed using R version 3.1.0 (2014-04-10) software (http://www.R-project.org/). Linear mixed effects modelling was completed using 1me4 (Bates et al. 2015). […]
To find significance between kappamab dose, time, and cytokine expression levels, we fitted a linear mixed-effects model that modelled cytokine fluorescence expression levels with fixed-effects terms for baseline cytokine fluorescence expression, kappamab dose (with 4 levels: 0.3, 1.0, 3.0, and 10 mg/kg), time (treated as factor with 5 levels), and cytokine with 48 levels, plus their interactions, with a random effect associated with patient (12 levels) and plex (2 levels). […]

serum λFLC = assay: Serum λFLC (FreeLite assay); details: throughout the study
From the text: (§1) Serum FLC levels were quantified using the FreeLite™ assay (The Binding Site Group Ltd, Birmingham, UK). […] Twenty-four-hour urine collection for urine protein electrophoresis immunofixation, urine FLC measurement (FreeLite™ assay), and creatinine clearance were collected on the day of infusion and on Day 45.

serum κFLC = assay: Serum κFLC pharmacodynamics (FreeLite assay)
From the text: as §1

[1] = Pharmacokinetics: serum kappamab by ELISA
From the text: The PK analysis was based on measurement of serum kappamab using an ELISA that was validated according to recommended guidelines. Briefly, immobilized human kappa Bence Jones protein (Bethyl, Sigma, USA) was used to capture kappamab. The captured kappamab was then detected using an AP-conjugated anti-human IgG (gamma chain specific; Sigma, Cat. No. H4522) followed by colour development with the AP substrate.

Substance: kappamab: humanized form of K121 anti-KMA antibody; VH SEQ ID NO: 1, VL SEQ ID NO: 2
- Change in serum concentration (CXCL9): dose-related decreases
- Serum λFLC concentration (serum λFLC): no apparent change
- Serum κFLC higher than baseline (serum κFLC; Patient 2, during the study): up to 136%
- Serum κFLC higher than baseline (serum κFLC; Patient 7, Day 1): 83%
- Serum κFLC increase from baseline (serum κFLC; Patient 7, Day 30): 178%
- Serum κFLC increase from baseline (serum κFLC; Patient 7, Day 45): 198%
- Serum κFLC versus baseline (serum κFLC; Patient 7, by Day 105 post infusion): returned to below baseline
- Serum κFLC increase from baseline (serum κFLC; Patient 13, 6 hours after IV infusion): 690%
- Serum κFLC below baseline (serum κFLC; Patient 13, Day 45, remained for 3 months): 55%
- Patients with decreases in serum κFLC below baseline (serum κFLC; after Day 15, 8/12 patients): 67%
- Change in serum κFLC levels following IV infusion (serum κFLC; all patients): increase
- Serum κFLC versus baseline (serum κFLC; by Day 45, majority of patients): generally similar to baseline values
- Dose dependency between serum κFLC increase and kappamab concentration (serum κFLC; in vivo): no clear dose dependency
- Cmax ([1]; 1.0 mg/kg single IV dose, N = 3, geometric mean): 20600 ng/mL
- Manner of decline of serum kappamab after Cmax ([1]; human, in vivo): biphasic manner
- Serum concentration at Day 30 relative to Cmax ([1]; human, in vivo): 0.3-10 % of Cmax
- Volume of distribution (Vz), description ([1]; human, in vivo): low and similar across ascending doses
- AUC0-tz ([1]; human, in vivo, iv, 0.3 mg/kg): 803 µg·h/mL
- AUC0-tz normalized for dose (mg/kg) ([1]; human, in vivo, iv, 0.3 mg/kg): 2678 µg·h/mL
- AUC0-∞ ([1]; human, in vivo, iv, 0.3 mg/kg): 901 µg·h/mL
- AUC0-∞ normalized for dose (mg/kg) ([1]; human, in vivo, iv, 0.3 mg/kg): 3003 µg·h/mL
- CL (apparent total body clearance) ([1]; human, in vivo, iv, 0.3 mg/kg): 7.99 mL/day/kg
- Cmax ([1]; human, in vivo, iv, 0.3 mg/kg): 5440 ng/mL
- Vz (apparent volume of distribution during terminal phase) ([1]; human, in vivo, iv, 0.3 mg/kg): 0.114 L/kg
- t1/2 (apparent elimination half-life) ([1]; human, in vivo, iv, 0.3 mg/kg): 237 h
- tmax ([1]; human, in vivo, iv, 0.3 mg/kg): 3.00 h
- AUC0-tz ([1]; human, in vivo, iv, 1 mg/kg): 3006 µg·h/mL
- AUC0-tz normalized for dose (mg/kg) ([1]; human, in vivo, iv, 1 mg/kg): 3006 µg·h/mL
- AUC0-∞ normalized for dose (mg/kg) ([1]; human, in vivo, iv, 1 mg/kg): 3079 µg·h/mL
- CL (apparent total body clearance) ([1]; human, in vivo, iv, 1 mg/kg): 7.79 mL/day/kg
- Vz (apparent volume of distribution during terminal phase) ([1]; human, in vivo, iv, 1 mg/kg): 0.0946 L/kg
- t1/2 (apparent elimination half-life) ([1]; human, in vivo, iv, 1 mg/kg): 202 h
- tmax ([1]; human, in vivo, iv, 1 mg/kg): 4.00 h
- AUC0-tz ([1]; human, in vivo, iv, 3 mg/kg): 6864 µg·h/mL
- AUC0-tz normalized for dose (mg/kg) ([1]; human, in vivo, iv, 3 mg/kg): 2288 µg·h/mL
- AUC0-∞ ([1]; human, in vivo, iv, 3 mg/kg): 6927 µg·h/mL
- AUC0-∞ normalized for dose (mg/kg) ([1]; human, in vivo, iv, 3 mg/kg): 2309 µg·h/mL
- CL (apparent total body clearance) ([1]; human, in vivo, iv, 3 mg/kg): 10.4 mL/day/kg
- Cmax ([1]; human, in vivo, iv, 3 mg/kg): 69900 ng/mL
- Vz (apparent volume of distribution during terminal phase) ([1]; human, in vivo, iv, 3 mg/kg): 0.120 L/kg
- t1/2 (apparent elimination half-life) ([1]; human, in vivo, iv, 3 mg/kg): 191 h
- tmax ([1]; human, in vivo, iv, 3 mg/kg): 2.00 h
- AUC0-tz ([1]; human, in vivo, iv, 10 mg/kg): 22994 µg·h/mL
- AUC0-tz normalized for dose (mg/kg) ([1]; human, in vivo, iv, 10 mg/kg): 2299 µg·h/mL
- AUC0-∞ ([1]; human, in vivo, iv, 10 mg/kg): 23227 µg·h/mL
- AUC0-∞ normalized for dose (mg/kg) ([1]; human, in vivo, iv, 10 mg/kg): 2323 µg·h/mL
- CL (apparent total body clearance) ([1]; human, in vivo, iv, 10 mg/kg): 10.3 mL/day/kg
- Cmax ([1]; human, in vivo, iv, 10 mg/kg): 219000 ng/mL
- Vz (apparent volume of distribution during terminal phase) ([1]; human, in vivo, iv, 10 mg/kg): 0.0770 L/kg
- t1/2 (apparent elimination half-life) ([1]; human, in vivo, iv, 10 mg/kg): 124 h
- tmax ([1]; human, in vivo, iv, 10 mg/kg): 4.00 h
- Detectability of kappamab in serum ([1]; in vivo): could be detected at all dose levels (up to Day 30)
- Start of the apparent terminal elimination phase ([1]; in vivo, iv): ~7 days
- Time at which maximum serum concentrations were achieved ([1]; in vivo, iv): 2 to 4 h
